# Data published in article PMC7404307.
# Target: ternary troponin complex I-T-C (cTnI-cTnT-cTnC) (UniProt P19429+P45379+P63316)
# Experiment: SPR imaging
# Conditions: L-DNA (all L-2'-deoxyribose); SPRi: PBS (10 mM phosphate, 137 mM NaCl, 2.7 mM KCl, pH 7.4), 25 C; filter binding: PBS, RT, 1 h; AlphaLisa: selection buffer (PBS, 1 mg/mL BSA, 0.01 ug/mL …)
row,Sequence,Kd [nM]
1,CAGTGAGTGATGGTGAGGGCTTAGTTCGCCGCTCATGCCGAATCTCCTGTATAAATACCCACACTGTCCATACACG [A6 spiegelmer],0.54
2,CAGTGAGTGATGGTGAGGGTGAATCGGTGTCGACTATTAAATTAAGTTGTGGTTGTTCCCACACTGTCCATACACG [C6 spiegelmer],0.305
